From paper PMC3333870

Target: T1, rLin28 (Lin28) (UniProt Q9H9Z2 1-209)
T1 sequence: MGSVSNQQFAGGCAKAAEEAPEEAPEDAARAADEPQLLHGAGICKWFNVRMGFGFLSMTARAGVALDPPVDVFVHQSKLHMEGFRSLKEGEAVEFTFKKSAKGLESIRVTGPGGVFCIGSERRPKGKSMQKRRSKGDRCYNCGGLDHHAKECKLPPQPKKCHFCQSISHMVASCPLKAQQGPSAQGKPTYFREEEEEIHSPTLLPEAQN
Assay: EMSA

B1: pre-let-7a-1 (structured_RNA)
RNA: GGGCUGAGGUAGUAGGUUGUAUAGUUUUAGGGUCACACCCACCACUGGGAGAUAACUAUACAAUCUACUGUCUUUCC
- Kd: 1.99 µM
